Measurements taken from paper PMC5320007, “PpEst is a novel PBAT degrading polyesterase identified by proteomic screening of Pseudomonas pseudoalcaligenes” (Applied Microbiology and Biotechnology, 2016).

Tests used:
[1] = biological target: T1, PpEst (Ectopseudomonas oleovorans, UniProt W6R2Y2); assay: 4-NPB hydrolysis inhibition, […] nm; format: biochemical
T1 construct: gene tesA

[2] = substrate: CCCC(=O)Oc1ccc([N+](=O)[O-])cc1; assay: purified protein; format: biochemical, Ectopseudomonas oleovorans; settings: 20 mM Tris-HCl pH 8.0, 150 mM NaCl, 0.1% Triton X-100, 25 °C, 'Exponential Rise to maximum' fit

O=C(O)c1ccc(C(=O)OCCCCO)cc1 [BuTA, 4-(4-hydroxybutoxycarbonyl)benzoic acid]
Ki [1]: 670 µM

B1: PpEst (Ectopseudomonas oleovorans CECT 5344) (protein)
chain: GTLLVVGDSISAAFGLDSRQGWVALLEKRLSEEGFEHSVVNASISGDTSAGGAARLSALLAEHKPELVIIELGGNDGLRGQPPAQLQQNLASMVEQSQQAGAKVLLLGMKLPPNYGVRYTTAFAQVFTDLAEQKQVSLVPFFLEGVGGVPGMMQADGIHPAEAAQEILLDNVWPTLKPML
Km [2]: 4.85 mM
kcat [2]: 1.98 s⁻¹
